This is an account of results in patent publication US20030203841A1 (US Dept. of Health and Human Services, published 2003).

In test [1] the target is epitope tagged N-formyl peptide receptor (FPR) on ETFR cells (stably transfected rat basophilic leukemia cells) (human) (UniProt P21462). Description: competition of unlabeled fMLP with ^3H-fMLP for binding to FPR expressing ETFR cells, filtration, 20 min at 37 C.
Test [2] has the same target. Description: cell-based or functional assay.
Test [3] has as its target T1, FPR-like receptor 1 (FPRL1) on transfected human embryonic kidney 293 cells (FPRL1/293 cells) (human, UniProt P25090 1-351).
T1 sequence: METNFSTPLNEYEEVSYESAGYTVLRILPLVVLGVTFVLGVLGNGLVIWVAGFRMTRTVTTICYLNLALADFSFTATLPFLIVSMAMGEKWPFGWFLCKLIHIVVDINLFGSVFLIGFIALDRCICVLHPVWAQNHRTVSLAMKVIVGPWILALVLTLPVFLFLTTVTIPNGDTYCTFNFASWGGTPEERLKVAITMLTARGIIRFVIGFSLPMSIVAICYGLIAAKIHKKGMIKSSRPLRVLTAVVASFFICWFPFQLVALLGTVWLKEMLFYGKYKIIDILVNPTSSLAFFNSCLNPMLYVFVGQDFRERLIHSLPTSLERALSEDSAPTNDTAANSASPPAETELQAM
Description: cell-based or functional assay.

Test [4] concerns the target T2, epitope tagged N-formyl peptide receptor (FPR) on ETFR cells (stably transfected rat basophilic leukemia … (human, UniProt P21462 1-350)).
T2 sequence: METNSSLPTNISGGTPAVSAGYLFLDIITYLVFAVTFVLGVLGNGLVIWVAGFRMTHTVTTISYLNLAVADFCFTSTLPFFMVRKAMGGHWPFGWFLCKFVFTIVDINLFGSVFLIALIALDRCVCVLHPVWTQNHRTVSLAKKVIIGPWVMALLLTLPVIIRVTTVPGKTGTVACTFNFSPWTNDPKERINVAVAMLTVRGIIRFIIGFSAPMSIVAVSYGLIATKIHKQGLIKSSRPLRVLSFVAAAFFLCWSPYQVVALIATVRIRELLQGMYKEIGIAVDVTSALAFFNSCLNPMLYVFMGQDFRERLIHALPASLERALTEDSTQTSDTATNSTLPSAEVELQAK
Put plainly: cell-based or functional assay.

Where no end group is shown, it is not given here. The star is where a group is joined. For = O=C*

Take “N-formyl-methionyl-leucyl-phenylalanine (fMLP) (peptide)”: the IC50 (as a rule, the concentration that inhibits the measured activity by half) in test [1] stood at 1 nM. Further, in test [2], the EC50 of migration of ETFR cells (chemotaxis) is 0.5 nM and the concentration required to induce a change in the ratio of 2 at 340/380 nm fluorescence (Ca^++) in FPR expressing cells came out at 1e-10.

In the case of NNLLRAIEAQQHLLQLTVWGIKQLQARILAVERYLKDQ (also: some embodiments acylated, form not given here) [T21/DP107], in test [3], the “EC50 of migration of FPRL1/293 cells (chemotaxis)” value came to 50 nM and the “concentration required to induce a change in the ratio of 0.6 at 340/380 nm fluorescence (Ca^++) in FPRL1/293 cells” value amounted to 5e-07. For the same molecule, the “concentration required to induce a change in the ratio of 2 at 340/380 nm fluorescence (Ca^++) in FPR expressing cells” value in test [4] worked out at 1e-05.

As to For-Met-Leu-Phe (also: tritiated (3H) form used as tracer) [N-formyl-methionyl-leucyl-phenylalanine (fMLP)], in test [3], the “concentration required to induce a change in the ratio of 0.6 at 340/380 nm fluorescence (Ca^++) in FPRL1/293 cells” value worked out at 5e-05 and the “excess of fMLP needed to desensitize the Ca^++ flux induced by T21/DP107 in FPRL1/293 cells” value was 1000 fold.
